The values that follow come from patent US20080125498A1 (published 2008).

In the assay the target is T1, protease-activated receptor 1 (PAR1), rat, endogenous in hippocampal neurons (rat, UniProt P26824 46-432).
T1 sequence (looked up): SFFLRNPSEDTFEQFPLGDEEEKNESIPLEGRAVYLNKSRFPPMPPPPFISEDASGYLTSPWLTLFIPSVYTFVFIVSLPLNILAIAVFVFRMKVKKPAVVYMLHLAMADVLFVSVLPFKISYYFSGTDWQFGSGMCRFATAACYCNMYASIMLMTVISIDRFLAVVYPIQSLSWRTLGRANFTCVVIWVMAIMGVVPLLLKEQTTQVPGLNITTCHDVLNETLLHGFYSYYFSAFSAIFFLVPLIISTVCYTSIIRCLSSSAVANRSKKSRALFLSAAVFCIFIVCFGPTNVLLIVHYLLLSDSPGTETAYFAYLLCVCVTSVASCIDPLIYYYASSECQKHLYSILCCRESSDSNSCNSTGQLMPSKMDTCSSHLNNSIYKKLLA
As to the kind of experiment: cell-based or functional assay.

Turning to SFLLRN, the “potentiation of the response to NMDA plus glycine in CA1 pyramidal cells, 30 micromolar SFLLRN” value was determined as 1.76 fold.
